# Source: paper PMC6711944
# Target: NS1B-NTR (1-103), N-terminal region of the influenza B virus NS1 protein (influenza B virus) (UniProt P03502)
# Experiment: ITC; about 0.5 mM ISG15 injected into 250 ul of 0.05 mM NS1B-NTR in the cell, 20 aliquots of 2 ul; 25 °C; 10 mM HEPES-sodium, 500 mM NaCl, pH 7.2; MicroCal iTC200; 'one set of sites' fitting model
substance,measurement,value
cISG15-K82A-N83A (natural protein),Kd,12 µM
